Data published in patent publication US20040115622A1.
pIC50: −log10 of the molar value.

Experiments:
[1] = target: HLA-DR molecule encoded by the allele DRB1*1501 (human); test: competition ELISA vs biotinylated A3 152-166
[2] = target: HLA-DR molecule encoded by the allele DRB1*0101 (human); test: competition ELISA vs biotinylated HA 306-318
[3] = target: HLA-DR molecule encoded by the allele DRB1*0401 (human); test: competition ELISA vs biotinylated HA 306-318
[4] = target: HLA-DR molecule encoded by the allele DRB5*0101 (human); test: competition ELISA vs biotinylated HA 306-318
[5] = target: HLA-DR molecule encoded by the allele DRB4*0101 (human); test: competition ELISA vs biotinylated E2/E168
[6] = target: HLA-DR molecule encoded by the allele DRB1*0701 (human); test: competition ELISA vs biotinylated YKL

| Substance | pIC50 [1] | pIC50 [2] | pIC50 [3] | pIC50 [4] | pIC50 [5] | pIC50 [6] |
| --- | --- | --- | --- | --- | --- | --- |
| Nef4.5 peptide (positions 77-91 of the HIV-1 Nef protein, Bru strain) (from UniProt P03406 77-91) (peptide; other documents disagree on this pair) | 5.88 | 7.92 | 7.22 | 7.55 |  |  |
| Nef4.3 peptide (positions 72-86 of the HIV-1 Nef protein, Bru strain) (from UniProt P03406 72-86) (peptide; other documents disagree on this pair) | 5.71 | 5.70 | 5.70 | 5.82 | 5.61 |  |
| Nef4.1 peptide (positions 66-80 of the HIV-1 Nef protein, Bru strain) (from UniProt P03406 66-80) (peptide; other documents disagree on this pair) |  | 5.82 |  |  |  |  |
| Nef4.6 peptide (positions 79-93 of the HIV-1 Nef protein, Bru strain) (from UniProt P03406 79-93) (peptide; other documents disagree on this pair) |  | 7.26 | 6.82 | 7.35 |  |  |
| Nef4 peptide (positions 66-94 of the HIV-1 Nef protein, Bru strain) (from UniProt P03406 66-94) (peptide; other documents disagree on this pair) | 6.12 | 7.26 | 7.35 | 7.92 | 6.65 | 5.30 |
| Nef4.4 peptide (positions 74-88 of the HIV-1 Nef protein, Bru strain) (from UniProt P03406 74-88) (peptide; other documents disagree on this pair) | 6.18 | 6.46 | 6.65 | 6.15 | 6.26 |  |
| Nef4.2 peptide (positions 68-82 of the HIV-1 Nef protein, Bru strain) (from UniProt P03406 68-82) (peptide; other documents disagree on this pair) | 5.15 | 6.60 |  |  |  |  |
